Like-named read-outs stand apart in the source and are kept apart here.
T1: ScVL1 capsid protein Cap, full size (680 amino acids) (ScVL1 virus of Saccharomyces cerevisiae)
T1 chain: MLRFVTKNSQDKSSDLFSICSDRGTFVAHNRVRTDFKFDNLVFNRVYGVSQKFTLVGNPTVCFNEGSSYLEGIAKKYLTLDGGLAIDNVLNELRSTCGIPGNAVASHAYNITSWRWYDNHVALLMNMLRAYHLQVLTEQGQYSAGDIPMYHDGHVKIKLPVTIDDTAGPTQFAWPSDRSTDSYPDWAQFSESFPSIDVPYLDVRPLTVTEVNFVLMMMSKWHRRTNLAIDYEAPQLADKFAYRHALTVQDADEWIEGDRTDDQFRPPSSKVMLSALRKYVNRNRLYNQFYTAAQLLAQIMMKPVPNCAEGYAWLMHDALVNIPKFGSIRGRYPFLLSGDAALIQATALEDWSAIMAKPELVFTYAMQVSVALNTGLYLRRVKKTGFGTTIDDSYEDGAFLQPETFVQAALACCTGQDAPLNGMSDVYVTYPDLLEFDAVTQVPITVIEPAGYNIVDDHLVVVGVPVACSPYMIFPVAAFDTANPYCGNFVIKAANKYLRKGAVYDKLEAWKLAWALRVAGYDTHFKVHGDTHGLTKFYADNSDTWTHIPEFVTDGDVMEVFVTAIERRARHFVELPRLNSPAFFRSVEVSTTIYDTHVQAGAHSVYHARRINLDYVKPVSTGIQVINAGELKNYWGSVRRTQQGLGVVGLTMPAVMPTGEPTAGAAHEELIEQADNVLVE

B1: L1 Cap N-terminal fragment of nonsense mutant pGL1m13 (Q10O, aa 1-9) (peptide)
chain: MLRFVTKNS
B2: L1 Cap N-terminal fragment of pGL1d4 (aa 1-435) (other)
chain: MLRFVTKNSQDKSSDLFSICSDRGTFVAHNRVRTDFKFDNLVFNRVYGVSQKFTLVGNPTVCFNEGSSYLEGIAKKYLTLDGGLAIDNVLNELRSTCGIPGNAVASHAYNITSWRWYDNHVALLMNMLRAYHLQVLTEQGQYSAGDIPMYHDGHVKIKLPVTIDDTAGPTQFAWPSDRSTDSYPDWAQFSESFPSIDVPYLDVRPLTVTEVNFVLMMMSKWHRRTNLAIDYEAPQLADKFAYRHALTVQDADEWIEGDRTDDQFRPPSSKVMLSALRKYVNRNRLYNQFYTAAQLLAQIMMKPVPNCAEGYAWLMHDALVNIPKFGSIRGRYPFLLSGDAALIQATALEDWSAIMAKPELVFTYAMQVSVALNTGLYLRRVKKTGFGTTIDDSYEDGAFLQPETFVQAALACCTGQDAPLNGMSDVYVTYPDLLE
B3: L1 Cap N-terminal fragment of pGL1d5 (aa 1-433) (other)
chain: MLRFVTKNSQDKSSDLFSICSDRGTFVAHNRVRTDFKFDNLVFNRVYGVSQKFTLVGNPTVCFNEGSSYLEGIAKKYLTLDGGLAIDNVLNELRSTCGIPGNAVASHAYNITSWRWYDNHVALLMNMLRAYHLQVLTEQGQYSAGDIPMYHDGHVKIKLPVTIDDTAGPTQFAWPSDRSTDSYPDWAQFSESFPSIDVPYLDVRPLTVTEVNFVLMMMSKWHRRTNLAIDYEAPQLADKFAYRHALTVQDADEWIEGDRTDDQFRPPSSKVMLSALRKYVNRNRLYNQFYTAAQLLAQIMMKPVPNCAEGYAWLMHDALVNIPKFGSIRGRYPFLLSGDAALIQATALEDWSAIMAKPELVFTYAMQVSVALNTGLYLRRVKKTGFGTTIDDSYEDGAFLQPETFVQAALACCTGQDAPLNGMSDVYVTYPDL
B4: L1 Cap N-terminal fragment of nonsense mutant pGL1m12 (E435O, aa 1-434) (other)
chain: MLRFVTKNSQDKSSDLFSICSDRGTFVAHNRVRTDFKFDNLVFNRVYGVSQKFTLVGNPTVCFNEGSSYLEGIAKKYLTLDGGLAIDNVLNELRSTCGIPGNAVASHAYNITSWRWYDNHVALLMNMLRAYHLQVLTEQGQYSAGDIPMYHDGHVKIKLPVTIDDTAGPTQFAWPSDRSTDSYPDWAQFSESFPSIDVPYLDVRPLTVTEVNFVLMMMSKWHRRTNLAIDYEAPQLADKFAYRHALTVQDADEWIEGDRTDDQFRPPSSKVMLSALRKYVNRNRLYNQFYTAAQLLAQIMMKPVPNCAEGYAWLMHDALVNIPKFGSIRGRYPFLLSGDAALIQATALEDWSAIMAKPELVFTYAMQVSVALNTGLYLRRVKKTGFGTTIDDSYEDGAFLQPETFVQAALACCTGQDAPLNGMSDVYVTYPDLL
B5: L1 Cap N-terminal fragment of nonsense mutant pGL1m15 (G501O, aa 1-500) (other)
chain: MLRFVTKNSQDKSSDLFSICSDRGTFVAHNRVRTDFKFDNLVFNRVYGVSQKFTLVGNPTVCFNEGSSYLEGIAKKYLTLDGGLAIDNVLNELRSTCGIPGNAVASHAYNITSWRWYDNHVALLMNMLRAYHLQVLTEQGQYSAGDIPMYHDGHVKIKLPVTIDDTAGPTQFAWPSDRSTDSYPDWAQFSESFPSIDVPYLDVRPLTVTEVNFVLMMMSKWHRRTNLAIDYEAPQLADKFAYRHALTVQDADEWIEGDRTDDQFRPPSSKVMLSALRKYVNRNRLYNQFYTAAQLLAQIMMKPVPNCAEGYAWLMHDALVNIPKFGSIRGRYPFLLSGDAALIQATALEDWSAIMAKPELVFTYAMQVSVALNTGLYLRRVKKTGFGTTIDDSYEDGAFLQPETFVQAALACCTGQDAPLNGMSDVYVTYPDLLEFDAVTQVPITVIEPAGYNIVDDHLVVVGVPVACSPYMIFPVAAFDTANPYCGNFVIKAANKYLRK
B6: L1 Cap N-terminal fragment of nonsense mutant pGL1m14 (Y485O, aa 1-484) (other)
chain: MLRFVTKNSQDKSSDLFSICSDRGTFVAHNRVRTDFKFDNLVFNRVYGVSQKFTLVGNPTVCFNEGSSYLEGIAKKYLTLDGGLAIDNVLNELRSTCGIPGNAVASHAYNITSWRWYDNHVALLMNMLRAYHLQVLTEQGQYSAGDIPMYHDGHVKIKLPVTIDDTAGPTQFAWPSDRSTDSYPDWAQFSESFPSIDVPYLDVRPLTVTEVNFVLMMMSKWHRRTNLAIDYEAPQLADKFAYRHALTVQDADEWIEGDRTDDQFRPPSSKVMLSALRKYVNRNRLYNQFYTAAQLLAQIMMKPVPNCAEGYAWLMHDALVNIPKFGSIRGRYPFLLSGDAALIQATALEDWSAIMAKPELVFTYAMQVSVALNTGLYLRRVKKTGFGTTIDDSYEDGAFLQPETFVQAALACCTGQDAPLNGMSDVYVTYPDLLEFDAVTQVPITVIEPAGYNIVDDHLVVVGVPVACSPYMIFPVAAFDTANP

Experiments:
[1] = biological target: ScVL1 capsid protein Cap, full size (680 amino acids) (ScVL1 virus of Saccharomyces cerevisiae)
[2] = biological target: ScVLa capsid protein Cap, full size (697 amino acids) (ScVLa virus of Saccharomyces cerevisiae)
[3] = biological target: T1, ScVL1 capsid protein Cap, full size …; assay: cell-based or functional assay

Molecule | Curing (%) of ScVL1 [3] [%] | also measured
L1 Cap N-terminal fragment of pGL1d2 (aa 1-603) | – | Curing (%) of ScVL1 [1]: 100%
La Cap N-terminal fragment of pGLa1d3 (aa 1-443) | – | Curing (%) of ScVLa [2]: 100%
B1 | < 5 | –
B2 | < 5 | –
B3 | < 5 | –
B4 | < 5 | –
B5 | < 5 | –
B6 | < 5 | –

Reference: US5831013, “Capsid polypeptides and use to inhibit viral packaging” (The Research Foundation of State University of New York, dated 1998)
